The supplement of paper PMC9112550, “Optimization of the antimicrobial peptide Bac7 by deep mutational scanning” (BMC Biology, 2022)

System: Escherichia coli TOP10
Assay: shrunken log2 fold change of peptide-encoding DNA abundance (4.5 h post-induction vs induction); higher = less antimicrobial activity (less host growth inhibition)
Conditions: time post-induction: 4.5 h; library: site-saturation at positions 5, 18, 19, 20
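Further: peptides expressed intracellularly from a pBAD plasmid library in pooled LB shake-flask culture, induced with 0.3% L-arabinose, DNA abundance read by NGS, three biological replicates, DESeq2 with apeglm shrinkage.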

Row | Sequence | shrunken log2 fold change
1 | RRIRYRPPRLPRPRPRPHTPPRP | -0.346
2 | RRIRFRPPRLPRPRPRPRPHPRP | 0.355
3 | RRIRARPPRLPRPRPRPRTSPRP | 0.382
4 | RRIRWRPPRLPRPRPRPKQMPRP | 0.113
5 | RRIRLRPPRLPRPRPRPGSFPRP | 0.236
6 | RRIRRRPPRLPRPRPRPSVHPRP | -0.278
7 | RRIRSRPPRLPRPRPRPLKAPRP | -0.234
8 | RRIRERPPRLPRPRPRPSPKPRP | 0.0298
9 | RRIRIRPPRLPRPRPRPNVTPRP | -0.149
10 | RRIRCRPPRLPRPRPRPAQVPRP | -0.053
11 | RRIRCRPPRLPRPRPRPCQLPRP | -0.171
12 | RRIRCRPPRLPRPRPRPEIIPRP | -0.363
13 | RRIRYRPPRLPRPRPRPAMIPRP | -0.229
14 | RRIRVRPPRLPRPRPRPADEPRP | -0.0284
15 | RRIRMRPPRLPRPRPRPNNPPRP | 0.395
16 | RRIRHRPPRLPRPRPRPGPYPRP | -0.226
17 | RRIRFRPPRLPRPRPRPWKIPRP | -0.0171
18 | RRIRKRPPRLPRPRPRPWHAPRP | -0.0686
19 | RRIRMRPPRLPRPRPRPACYPRP | 0.223
20 | RRIRVRPPRLPRPRPRPRWKPRP | 0.328

Row | Sequence | shrunken log2 fold change
21 | RRIRVRPPRLPRPRPRPCNRPRP | -0.0287
22 | RRIRTRPPRLPRPRPRPIRGPRP | 0.074
23 | RRIRIRPPRLPRPRPRPYQSPRP | -0.0409
24 | RRIRERPPRLPRPRPRPVTNPRP | -0.0383
25 | RRIRFRPPRLPRPRPRPLPSPRP | 0.0283
26 | RRIRERPPRLPRPRPRPFLNPRP | -0.0647
27 | RRIRWRPPRLPRPRPRPKISPRP | 0.177
28 | RRIRSRPPRLPRPRPRPNSDPRP | -0.0183
29 | RRIRKRPPRLPRPRPRPMGWPRP | 0.31
30 | RRIRQRPPRLPRPRPRPCQCPRP | -0.034
31 | RRIRRRPPRLPRPRPRPVEFPRP | 0.0107
32 | RRIRHRPPRLPRPRPRPPATPRP | 0.29
33 | RRIRRRPPRLPRPRPRPIYSPRP | -0.159
34 | RRIRFRPPRLPRPRPRPSECPRP | -0.472
35 | RRIRVRPPRLPRPRPRPIVQPRP | -0.223
36 | RRIRQRPPRLPRPRPRPPDNPRP | 0.00496
37 | RRIRSRPPRLPRPRPRPISCPRP | -0.0707
38 | RRIRPRPPRLPRPRPRPHDRPRP | -0.0974
39 | RRIRFRPPRLPRPRPRPVPAPRP | 0.217
40 | RRIRMRPPRLPRPRPRPPEDPRP | 1.66

Row | Sequence | shrunken log2 fold change
41 | RRIRVRPPRLPRPRPRPAGHPRP | -0.1
42 | RRIRERPPRLPRPRPRPQAPPRP | -0.0683
43 | RRIRYRPPRLPRPRPRPCRIPRP | -0.0823
44 | RRIRVRPPRLPRPRPRPNDGPRP | -0.133
45 | RRIRFRPPRLPRPRPRPKARPRP | 0.297
46 | RRIRPRPPRLPRPRPRPNPMPRP | -0.211
47 | RRIRGRPPRLPRPRPRPFGGPRP | 0.401
48 | RRIRPRPPRLPRPRPRPPNTPRP | 0.179
49 | RRIRARPPRLPRPRPRPEFVPRP | 1.05
50 | RRIRQRPPRLPRPRPRPYFFPRP | -0.706
51 | RRIRCRPPRLPRPRPRPCTWPRP | -0.0985
52 | RRIRDRPPRLPRPRPRPHFGPRP | 0.0884
53 | RRIRYRPPRLPRPRPRPFKAPRP | -0.55
54 | RRIRQRPPRLPRPRPRPAPLPRP | 0.451
55 | RRIRYRPPRLPRPRPRPRIEPRP | 0.0242
56 | RRIRIRPPRLPRPRPRPQHWPRP | 0.112
57 | RRIRFRPPRLPRPRPRPTPAPRP | 0.951
58 | RRIRIRPPRLPRPRPRPWMKPRP | -0.305
59 | RRIRNRPPRLPRPRPRPNHFPRP | -0.0479
60 | RRIRRRPPRLPRPRPRPYHFPRP | -0.116
